Experimental data from paper PMC3337157 (Small GTPases, 2011).

Molecular target: T1, Rnd1 mutant W66L (residues 5-200) (UniProt Q92730 5-200, W66L)
T1 sequence (looked up): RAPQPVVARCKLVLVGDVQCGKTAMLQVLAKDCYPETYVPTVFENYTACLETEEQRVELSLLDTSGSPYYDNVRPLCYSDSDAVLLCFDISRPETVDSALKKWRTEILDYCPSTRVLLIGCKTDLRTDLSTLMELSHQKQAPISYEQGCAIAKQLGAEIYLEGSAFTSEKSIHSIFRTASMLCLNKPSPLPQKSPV
Experiment: ITC

Ka: 209000 M⁻¹
Kd: 4.8 ± 0.5 µM
dH: -3.9 ± 0.1 kcal/mol
stoichiometry N: 0.98
B1: plexin-B1 Rho GTPase binding domain (RBD) (domain or fragment)
chain: DVEYRPLTLNALLAVGPGAGEAQGVPVKVLDCDTISQAKEKMLDQLYKGVPLTQRPDPRTLDVEWRSGVAGHLILSDEDVTSEVQGLWRRLNTLQHYKVPDGATVALVPCLTKHVLRENQ
